From IntAct's records for PubMed 29039417

B1: BBSome-interacting protein 1 (Homo sapiens), A8MTZ0 (parent)
chain: MLKAAAKRPELSGKNTISNNSDMAEVKSMFREVLPKQGPLFVEDIMTMVLCKPKLLPLKSLTLEKLEKMHQAAQNTIRQQEMAEKDQRQITH
partner: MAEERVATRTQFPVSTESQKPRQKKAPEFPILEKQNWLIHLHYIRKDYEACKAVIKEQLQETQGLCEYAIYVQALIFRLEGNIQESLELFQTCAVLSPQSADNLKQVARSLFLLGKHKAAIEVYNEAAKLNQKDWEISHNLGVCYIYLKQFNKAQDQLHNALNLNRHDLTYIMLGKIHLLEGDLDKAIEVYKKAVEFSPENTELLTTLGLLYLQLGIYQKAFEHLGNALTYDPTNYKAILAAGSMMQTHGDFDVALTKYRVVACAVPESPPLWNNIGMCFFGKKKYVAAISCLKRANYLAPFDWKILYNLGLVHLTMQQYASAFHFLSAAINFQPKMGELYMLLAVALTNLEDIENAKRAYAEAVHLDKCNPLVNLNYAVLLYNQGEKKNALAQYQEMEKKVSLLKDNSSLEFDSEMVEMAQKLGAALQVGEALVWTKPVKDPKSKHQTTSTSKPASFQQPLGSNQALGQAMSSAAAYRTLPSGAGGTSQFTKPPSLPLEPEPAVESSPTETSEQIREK
B2: BBSome complex member BBS1 (Homo sapiens), Q8NFJ9 (parent)
chain: MAAASSSDSDACGAESNEANSKWLDAHYDPMANIHTFSACLALADLHGDGEYKLVVGDLGPGGQQPRLKVLKGPLVMTESPLPALPAAAATFLMEQHEPRTPALALASGPCVYVYKNLRPYFKFSLPQLPPNPLEQDLWNQAKEDRIDPLTLKEMLESIRETAEEPLSIQSLRFLQLELSEMEAFVNQHKSNSIKRQTVITTMTTLKKNLADEDAVSCLVLGTENKELLVLDPEAFTILAKMSLPSVPVFLEVSGQFDVEFRLAAACRNGNIYILRRDSKHPKYCIELSAQPVGLIRVHKVLVVGSTQDSLHGFTHKGKKLWTVQMPAAILTMNLLEQHSRGLQAVMAGLANGEVRIYRDKALLNVIHTPDAVTSLCFGRYGREDNTLIMTTRGGGLIIKILKRTAVFVEGGSEVGPPPAQAMKLNVPRKTRLYVDQTLREREAGTAMHRAFQTDLYLLRLRAARAYLQALESSLSPLSTTAREPLKLHAVVQGLGPTFKLTLHLQNTSTTRPVLGLLVCFLYNEALYSLPRAFFKVPLLVPGLNYPLETFVESLSNKGISDIIKVLVLREGQSAPLLSAHVNMPGSEGLAAA
partner: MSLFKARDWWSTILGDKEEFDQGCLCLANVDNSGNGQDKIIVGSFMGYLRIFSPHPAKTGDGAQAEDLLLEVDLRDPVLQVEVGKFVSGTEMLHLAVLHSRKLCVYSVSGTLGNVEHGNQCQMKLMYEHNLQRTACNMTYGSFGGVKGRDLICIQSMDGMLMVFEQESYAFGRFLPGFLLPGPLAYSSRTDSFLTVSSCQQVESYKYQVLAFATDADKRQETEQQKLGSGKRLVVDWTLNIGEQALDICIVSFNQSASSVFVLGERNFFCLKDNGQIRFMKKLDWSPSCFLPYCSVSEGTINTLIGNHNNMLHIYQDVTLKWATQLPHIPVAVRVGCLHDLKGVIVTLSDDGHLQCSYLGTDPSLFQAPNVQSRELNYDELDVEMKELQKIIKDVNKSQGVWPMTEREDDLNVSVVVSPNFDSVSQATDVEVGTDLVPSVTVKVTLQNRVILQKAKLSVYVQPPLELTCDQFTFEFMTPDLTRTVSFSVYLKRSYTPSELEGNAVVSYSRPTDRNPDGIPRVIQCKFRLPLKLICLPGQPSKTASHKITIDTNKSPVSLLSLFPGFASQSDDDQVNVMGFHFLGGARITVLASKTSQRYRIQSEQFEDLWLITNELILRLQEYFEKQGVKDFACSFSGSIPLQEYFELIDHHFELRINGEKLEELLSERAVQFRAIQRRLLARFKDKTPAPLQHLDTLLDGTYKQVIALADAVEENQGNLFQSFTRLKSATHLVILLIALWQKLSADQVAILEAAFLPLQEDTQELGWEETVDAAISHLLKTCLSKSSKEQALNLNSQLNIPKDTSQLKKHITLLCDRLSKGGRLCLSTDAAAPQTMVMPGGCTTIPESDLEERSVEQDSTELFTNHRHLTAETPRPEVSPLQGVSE

Variants of: B1
Details: with bbs4_human BBS4, Q96RK4

Row | Variant | effect of a mutation on the interaction
1 | Q71K | with no effect
2 | Q71A | with no effect
3 | Q71R | disrupting interaction strength
4 | Q71E | with no effect
5 | E84K | with no effect
6 | E84A | with no effect
7 | L66K | with no effect
8 | L66E | with no effect
9 | L66A | with no effect
10 | A72D | disrupting interaction strength
11 | A72E | with no effect
12 | A72K | with no effect
13 | Q74A | with no effect
14 | Q74K | with no effect
15 | Q74E | with no effect
16 | H70E | with no effect
17 | H70K | with no effect
18 | H70T | disrupting interaction strength
19 | H70A | with no effect
20 | L56K | with no effect
21 | M69K | with no effect
22 | M69A | with no effect
23 | M69E | with no effect
24 | A83E | with no effect
25 | A83K | with no effect
26 | E64K | with no effect

Row | Variant | effect of a mutation on the interaction
27 | E64A | with no effect
28 | E67A | disrupting interaction strength
29 | E67K | with no effect
30 | E67S | disrupting interaction strength
31 | Q80K | with no effect
32 | Q80A | with no effect
33 | Q80E | with no effect
34 | S60E | with no effect
35 | S60K | with no effect
36 | S60A | with no effect
37 | I77A | with no effect
38 | I77E | with no effect
39 | I77K | with no effect
40 | T91A | with no effect
41 | T91K | with no effect
42 | T91E | with no effect
43 | E81K | with no effect
44 | E81A | with no effect
45 | Q87E | with no effect
46 | Q87A | with no effect
47 | Q87K | with no effect
48 | H92K | with no effect
49 | H92A | with no effect
50 | H92E | with no effect
51 | L58K | with no effect
52 | L58E | with no effect

Row | Variant | effect of a mutation on the interaction
53 | L58A | with no effect
54 | T76E | with no effect
55 | T76A | with no effect
56 | T76K | with no effect
57 | Q79K | with no effect
58 | Q79E | with no effect
59 | Q79A | with no effect
60 | L63E | with no effect
61 | L63K | with no effect
62 | L63A | with no effect
63 | K68E | with no effect
64 | K68A | with no effect
65 | K65E | with no effect
66 | K65A | with no effect
67 | I90A | with no effect
68 | I90E | with no effect
69 | I90K | with no effect
70 | D86E | with no effect
71 | D86K | with no effect
72 | D86A | with no effect
73 | Q89K | with no effect
74 | Q89A | with no effect
75 | Q89E | with no effect
76 | K59A | with no effect
77 | K59E | with no effect
78 | M82K | with no effect

Row | Variant | effect of a mutation on the interaction
79 | M82E | with no effect
80 | M82A | with no effect
81 | R78E | with no effect
82 | R78A | with no effect
83 | R78K | with no effect
84 | N75A | with no effect
85 | N75K | with no effect
86 | N75E | with no effect
87 | R88E | with no effect
88 | R88K | with no effect
89 | R88A | with no effect
90 | P57A | with no effect
91 | P57R | disrupting interaction strength
92 | P57E | with no effect
93 | P57K | with no effect
94 | K85A | with no effect
95 | K85E | with no effect
96 | L61E | with no effect
97 | L61A | with no effect
98 | L61K | with no effect
99 | T62S | disrupting interaction strength
100 | T62A | with no effect
101 | T62K | with no effect
102 | T62E | with no effect
103 | A73K | with no effect
104 | A73E | with no effect

Variants of: B2
Details: with pthb1_human BBS9, Q3SYG4

Row | Variant | effect of a mutation on the interaction
105 | K430A | with no effect
106 | K430M | disrupting interaction strength
107 | K430E | with no effect
108 | R432A | with no effect
109 | R432L | disrupting interaction strength
110 | R432K | with no effect
111 | R432E | with no effect
112 | D436A | disrupting interaction strength
113 | D436E | with no effect
114 | D436K | with no effect
115 | P419K | with no effect
116 | P419E | with no effect
117 | P419A | with no effect
118 | Q421K | with no effect
119 | Q421A | with no effect
120 | Q421E | with no effect
121 | M423K | with no effect
122 | M423A | with no effect
123 | M423E | with no effect
124 | P418K | with no effect
125 | P418E | with no effect
126 | P418A | with no effect
127 | A420K | with no effect
128 | A420E | with no effect
129 | R429A | with no effect
130 | R429E | with no effect

Row | Variant | effect of a mutation on the interaction
131 | R429K | with no effect
132 | L433E | with no effect
133 | L433K | with no effect
134 | L433A | with no effect
135 | S413K | with no effect
136 | S413A | with no effect
137 | S413E | with no effect
138 | V415A | with no effect
139 | V415E | with no effect
140 | V415K | with no effect
141 | K424E | with no effect
142 | K424A | with no effect
143 | V435E | with no effect
144 | V435K | with no effect
145 | V435L | disrupting interaction strength
146 | V435A | with no effect
147 | V427K | with no effect
148 | V427A | with no effect
149 | V427E | with no effect
150 | Y434A | with no effect
151 | Y434E | with no effect
152 | Y434K | with no effect
153 | G416A | with no effect
154 | G416E | with no effect
155 | G416K | with no effect
156 | Q437K | with no effect

Row | Variant | effect of a mutation on the interaction
157 | Q437E | with no effect
158 | Q437A | with no effect
159 | P428A | with no effect
160 | P428K | with no effect
161 | P428E | with no effect
162 | P417E | with no effect
163 | P417K | with no effect
164 | P417A | with no effect
165 | L425E | with no effect
166 | L425A | with no effect
167 | L425K | with no effect
168 | E414A | with no effect
169 | E414K | with no effect
170 | A422K | with no effect
171 | A422E | with no effect
172 | T431K | with no effect
173 | T431E | with no effect
174 | T431A | with no effect
175 | T438E | with no effect
176 | T438K | with no effect
177 | T438A | with no effect
178 | L439A | with no effect
179 | L439E | with no effect
180 | N426A | with no effect
181 | N426E | with no effect
182 | N426K | with no effect
